Source: patent US20140356366A1 (SAMSUNG ELECTRONICS, published 2014)
Positions count from the first letter of the chain named.

Legend:
[1] = target: c-Met on MKN45 stomach cancer cells (human, UniProt P08581 25-1390); assay: cell-based or functional assay
[2] = target: T1, EGFR-Fc (#344-ER, R&D Systems) (UniProt P00533 25-645); assay: Biacore T100, antibody captured by human Fab capturer on CM5 chip, EGFR-Fc injected
T1 construct: Bought reagent; only name and catalogue number are printed; not shown: Fc part of the bought fusion protein
Experimental: (§1) The anti-c-Met/anti-EGFR bispecific antibody was analyzed for affinity for the two antigens (c-Met/EGFR) using a Biacore T100 instrument (GE). […] The chip surface was regenerated by injecting a 10 mM Glycine-HCl solution (pH 1.5). For affinity evaluation, the data was fitted using the BIAevaluation software (GE Healthcare, Biacore T100 evaluation software).

[3] = target: T2, human c-Met/Fc fusion protein (R&D Systems) (human, UniProt P08581 25-932); assay: Biacore T100, antibody captured by human Fab capturer on CM5 chip, c-Met-Fc injected
T2 construct: Bought reagent; Treated as one molecule; also called c-Met-Fc (#358-MT/CF, R&D Systems); human c-Met/Fc protein; not shown: Fc part of the bought fusion protein
T2 sequence (P08581 25-932 limits assumed): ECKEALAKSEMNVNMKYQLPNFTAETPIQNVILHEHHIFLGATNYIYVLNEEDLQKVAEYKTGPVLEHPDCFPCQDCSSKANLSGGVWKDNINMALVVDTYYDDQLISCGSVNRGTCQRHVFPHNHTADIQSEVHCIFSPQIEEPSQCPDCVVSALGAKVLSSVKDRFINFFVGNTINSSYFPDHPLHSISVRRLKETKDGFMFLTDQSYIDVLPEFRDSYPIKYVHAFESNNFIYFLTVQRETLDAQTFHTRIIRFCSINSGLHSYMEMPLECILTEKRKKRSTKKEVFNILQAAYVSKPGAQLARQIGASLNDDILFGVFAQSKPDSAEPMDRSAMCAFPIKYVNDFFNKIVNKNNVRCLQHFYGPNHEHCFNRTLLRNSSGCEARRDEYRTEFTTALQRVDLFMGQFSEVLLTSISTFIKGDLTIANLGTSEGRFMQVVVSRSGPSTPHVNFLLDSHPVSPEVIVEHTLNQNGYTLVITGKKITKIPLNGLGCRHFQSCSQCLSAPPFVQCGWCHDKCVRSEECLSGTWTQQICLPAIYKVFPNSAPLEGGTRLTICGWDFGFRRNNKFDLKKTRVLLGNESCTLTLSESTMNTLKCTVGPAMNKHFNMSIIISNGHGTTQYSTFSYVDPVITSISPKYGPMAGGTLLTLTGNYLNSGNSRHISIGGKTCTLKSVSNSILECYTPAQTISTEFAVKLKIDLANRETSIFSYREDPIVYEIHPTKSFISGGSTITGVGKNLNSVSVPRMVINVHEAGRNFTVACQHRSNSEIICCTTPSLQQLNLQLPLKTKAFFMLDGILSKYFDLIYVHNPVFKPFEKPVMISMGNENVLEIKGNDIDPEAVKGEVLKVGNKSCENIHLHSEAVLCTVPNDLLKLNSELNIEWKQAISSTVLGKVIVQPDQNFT
Experimental: as §1

[4] = target: T3, synthesized peptide CIEDPSQAPDC (SEQ ID NO: 130), E168D; assay: PEPSCAN ELISA on synthesized peptides
T3 construct: Core EDPSQ, E168D mutation of c-Met
T3 peptide: CIEDPSQAPDC
Experimental: (§2) The peptides were maintained at room temperature for 30 minutes by using a 5% blocking solution to provoke a reaction (4% ovalbumin, 5% horse serum, and 1% Tween 80). […] Thereafter, the resultant product was treated with rabbit-anti-sheep antibody (SIGMA) and washed with PBS, and the washed product was then treated with peroxidase-attached swine-anti-rabbit antibody (SIGMA) and washed with PBS. Then, the resultant was treated with 2 ul/ml of peroxidase 2,2′-azino-di-3-ethylbenzthiazoline sulfonate (ABTS) (SIGMA) in 3% H₂O₂, and a color reaction was measured after 1 hour.

[5] = target: T4, synthesized peptide CSPQIEDPSQC (SEQ ID NO: 127), E168D; assay: PEPSCAN ELISA on synthesized peptides
T4 construct: Core EDPSQ, E168D mutation of c-Met
T4 peptide: CSPQIEDPSQC
Experimental: as §2

[6] = target: T5, synthesized peptide CQIEDPSQAPC (SEQ ID NO: 129), E168D; assay: PEPSCAN ELISA on synthesized peptides
T5 construct: Core EDPSQ, E168D mutation of c-Met
T5 peptide: CQIEDPSQAPC
Experimental: as §2

[7] = target: T6, peptide EEPSA (SEQ ID NO: 137); assay: Biacore, huAbF46 immobilized on CM5 chip, peptide injected
T6 peptide: EEPSA

[8] = target: T7, peptide EEPAQ (SEQ ID NO: 136); assay: as above
T7 peptide: EEPAQ

[9] = target: T8, peptide EEPSQ (SEQ ID NO: 73); assay: as above
T8 peptide: EEPSQ

[10] = target: T9, peptide EEASQ (SEQ ID NO: 135); assay: as above
T9 peptide: EEASQ

[11] = target: T10, peptide EAPSQ (SEQ ID NO: 134); assay: as above
T10 peptide: EAPSQ

[12] = target: T11, peptide AEPSQ (SEQ ID NO: 133); assay: as above
T11 peptide: AEPSQ

c-Met on MKN45 stomach cancer cells, sequence (P08581 25-1390): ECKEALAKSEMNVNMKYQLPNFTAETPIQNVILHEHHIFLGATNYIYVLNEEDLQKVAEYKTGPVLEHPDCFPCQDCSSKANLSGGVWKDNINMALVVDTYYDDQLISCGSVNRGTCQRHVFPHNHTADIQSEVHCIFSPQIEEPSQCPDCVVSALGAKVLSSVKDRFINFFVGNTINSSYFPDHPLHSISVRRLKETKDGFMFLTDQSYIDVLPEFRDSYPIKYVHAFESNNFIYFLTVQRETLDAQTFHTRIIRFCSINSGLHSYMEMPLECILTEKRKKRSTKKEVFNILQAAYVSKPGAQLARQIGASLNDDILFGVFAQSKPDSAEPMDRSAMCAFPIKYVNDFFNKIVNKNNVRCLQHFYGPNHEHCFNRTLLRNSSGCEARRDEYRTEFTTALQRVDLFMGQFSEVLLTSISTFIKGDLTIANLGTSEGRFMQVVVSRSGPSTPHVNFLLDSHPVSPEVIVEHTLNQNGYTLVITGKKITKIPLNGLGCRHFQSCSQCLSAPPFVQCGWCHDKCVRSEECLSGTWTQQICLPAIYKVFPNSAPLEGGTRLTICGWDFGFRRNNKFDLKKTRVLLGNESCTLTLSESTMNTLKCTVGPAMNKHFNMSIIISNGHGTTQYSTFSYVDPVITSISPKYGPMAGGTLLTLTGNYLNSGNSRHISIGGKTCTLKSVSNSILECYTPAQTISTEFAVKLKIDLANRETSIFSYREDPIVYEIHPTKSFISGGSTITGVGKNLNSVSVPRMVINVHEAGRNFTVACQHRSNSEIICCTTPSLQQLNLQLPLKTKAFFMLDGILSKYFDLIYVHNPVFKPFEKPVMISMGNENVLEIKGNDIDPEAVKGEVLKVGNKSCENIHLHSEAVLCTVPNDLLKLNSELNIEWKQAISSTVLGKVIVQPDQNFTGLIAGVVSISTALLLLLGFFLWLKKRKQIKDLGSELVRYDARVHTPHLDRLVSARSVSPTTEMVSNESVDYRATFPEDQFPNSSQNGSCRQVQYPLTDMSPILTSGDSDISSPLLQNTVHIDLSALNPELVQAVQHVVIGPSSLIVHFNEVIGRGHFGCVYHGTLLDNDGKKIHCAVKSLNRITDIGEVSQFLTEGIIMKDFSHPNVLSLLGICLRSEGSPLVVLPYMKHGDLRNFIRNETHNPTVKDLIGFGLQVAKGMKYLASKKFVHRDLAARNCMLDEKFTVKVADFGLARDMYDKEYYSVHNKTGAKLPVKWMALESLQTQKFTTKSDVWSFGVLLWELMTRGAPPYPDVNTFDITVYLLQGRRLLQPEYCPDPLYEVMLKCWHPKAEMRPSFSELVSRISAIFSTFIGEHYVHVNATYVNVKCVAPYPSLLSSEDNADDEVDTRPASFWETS

B1: anti-c-Met/anti-EGFR bispecific antibody ME-03 (bispecific antibody)
heavy: EVQLVESGGGLVQPGGSLRLSCAASGFTFTDYYMSWVRQAPGKGLEWLGFIRNKANGYTTEYSASVKGRFTISRDNSKNTLYLQMNSLRAEDTAVYYCARDNWFAYWGQGTLVTVSSASTKGPSVFPLAPCSRSTSESTAALGCLVKDYFPEPVTVSWNSGALTSGVHTFPAVLQSSGLYSLSSVVTVPSSNFGTQTYTCNVDHKPSNTKVDKTVERKCCVECPPCPAPPVAGPSVFLFPPKPKDTLMISRTPEVTCVVVDVSHEDPEVQFNWYVDGVEVHNAKTKPREEQFNSTFRVVSVLTVVHQDWLNGKEYKCKVSNKGLPAPIEKTISKTKGQPREPQVYTLPPSREEMTKNQVSLTCLVKGFYPSDIAVEWESNGQPENNYKTTPPMLDSDGSFFLYSKLTVDKSRWQQGNVFSCSVMHEALHNHYTQKSLSLSPGKGGGGSGGGGSQVQLVQSGAEVKKPGSSVKVSCKASGFTFTDYKIHWVRQAPGQGLEWMGYINPNSGYSTYASKFQGRVTITADKSTSTAYMELSSLRSEDTAVYYCARLSPGGYYVMDAWGQGTTVTVSSGGGGSGGGGSGGGGSDIQMTQSPSSLSASVGDRVTITCRASQGINNYLNWYQQKPGKAPKLLIYNTNNLQTGVPSRFSGSGSGTEFTLTISSLQPEDEATYYCLQHNSFPTFGQGTKLEIKRT
light: DIQMTQSPSSLSASVGDRVTITCKSSQSLLASGNQNNYLAWYQQKPGKAPKMLIIWASTRVSGVPSRFSGSGSGTDFTLTISSLQPEDFATYYCQQSYSRPYTFGQGTKVEIKRTVAAPSVFIFPPSDEQLKSGTASVVCLLNNFYPREAKVQWKVDNALQSGNSQESVTEQDSKDSTYSLSSTLTLSKADYEKHKVYACEVTHQGLSSPVTKSFNRGEC
c-Met degradation (relative total amount of c-Met, ELISA of lysates of MKN45 cells treated 24 hrs with 5 µg/ml antibody) [1]: 88.4%

B2: anti-c-Met/anti-EGFR bispecific antibody ME-01 (bispecific antibody)
heavy: B1 heavy with I504F, S515Q, L634R, E671F
light: B1 light
c-Met degradation (relative total amount of c-Met, ELISA of lysates of MKN45 cells treated 24 hrs with 5 µg/ml antibody) [1]: 86.8%

B3: anti-c-Met/anti-EGFR bispecific antibody ME-03S (bispecific antibody)
heavy: B1 heavy with G497C, G688C
light: B1 light
notes: Secondary mutant (disulfide-stabilised) anti-EGFR scFv fused to the C-terminus of the Fc of L3-1Y-IgG2
Kd [2]: 0.12 nM
koff [2]: 2.7e-05 s⁻¹
kon [2]: 240000 M⁻¹ s⁻¹
Kd [3]: 0.23 nM
koff [3]: 0.00016 s⁻¹
kon [3]: 670000 M⁻¹ s⁻¹

B4: humanized antibody huAbF46 (H4-heavy / H4-light) (antibody, V domains shown)
VH: EVQLVESGGGLVQPGGSLRLSCAASGFTFTDYYMSWVRQAPGKGLEWLGFIRNKANGYTTEYSASVKGRFTISRDNSKNTLYLQMNSLRAEDTAVYYCARDNWFAYWGQGTLVTVSS
VL: DIQMTQSPSSLSASVGDRVTITCKSSQSLLASGNQNNYLAWHQQKPGKAPKMLIIWASTRVSGVPSRFSGSGSGTDFTLTISSLQPEDFATYYCQQSYSAPLTFGQGTKVEIKR
notes: Purified on Protein A as a whole antibody; also called humanized antibody AbF46
binding result [4]: no binding
binding result [5]: no binding
binding result [6]: no binding
binding result [7]: no binding (tested: 100 nM to 0.39 nM of the peptides)
Kd [8]: 1.43 nM
Kd [9]: 1.64 nM
binding result [10]: no binding (tested: 100 nM to 0.39 nM of the peptides)
binding result [11]: no binding (tested: 100 nM to 0.39 nM of the peptides)
binding result [12]: no binding (tested: 100 nM to 0.39 nM of the peptides)
